Source: patent US6365366

What was measured:
Design in all cases: key to the marks not given beside the values
[1] = test system: T1, DQGSFCTSL peptide (SEQ ID NO:7)
T1 sequence: DQGSFCTSL

[2] = test system: T2, VDQGSIAASFVGT peptide (SEQ ID NO:10)
T2 sequence: VDQGSIAASFVGT

[3] = test system: T3, AKDVDQGSVCTSFVGTLQY peptide (SEQ ID NO:11)
T3 sequence: AKDVDQGSVCTSFVGTLQY

[4] = test system: T4, GGSFCTSL peptide (SEQ ID NO:6)
T4 sequence: GGSFCTSL

[5] = test system: T5, VDQGSLAASFVGT peptide (SEQ ID NO:8)
T5 sequence: VDQGSLAASFVGT

[6] = test system: T6, GGSLMTSF peptide (SEQ ID NO:5)
T6 sequence: GGSLMTSF

[7] = test system: T7, VDQGSMAASLVGT peptide (SEQ ID NO:9)
T7 sequence: VDQGSMAASLVGT

[8] = test system: T8, AKDVDQGSLCTSLVGTLQY peptide (SEQ ID NO:12)
T8 sequence: AKDVDQGSLCTSLVGTLQY

[9] = test system: T9, AKDVDQGSFCTSLVGTLQY peptide (SEQ ID NO:13)
T9 sequence: AKDVDQGSFCTSLVGTLQY

[10] = test system: T10, GGSLCTSF peptide (SEQ ID NO:4)
T10 sequence: GGSLCTSF

Measured: T2K substrate specificity

T2K kinase
+++: all assays above
